± gives the uncertainty stated by the source.
Test: amyloid nucleation score (Sup35N fusion, yeast selection) (log enrichment); library NNK2; higher = more nucleation; inactive = no reads after selection
In short: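 Growth for 7 days at 30°C on medium lacking adenine and uracil followed a 24-hour induction with 100 μM copper sulfate of psi-negative yeast expressing peptides of 20 random codons fused to Sup35N. Input and output plasmid inserts were sequenced with Illumina, and sequences with under 100 input reads were excluded. Nucleation score is the DiMSum log enrichment of output over input reads, centred on the mode score of non-aggregating sequences.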

First: IMPNLAPGCRIRAIVND
Second: IMWRTERINNYVDSV
The amyloid nucleation score of the first is higher: -0.006 ± 0.29 for the first, -0.846 ± 0.45 for the second.

Compared with IMYPLRNLAQDFLGDSVSYL, INGSYSGYLERFGGMLRWMV is higher in amyloid nucleation score: -1.07 ± 0.62 for the first, 0.753 ± 0.52 for the second.

Compared with INIIMFNVFINLEHIYYSVG, INIMARIWLQSVWLSVGRKS is lower in amyloid nucleation score: 5.79 ± 0.066 for the first, 0.097 ± 0.79 for the second.

Going from INISCLKVGALSKGTRLFR to INLISSYHFGELTCATSYWR, the amyloid nucleation score rises from 2.14 ± 0.068 to 4.77 ± 0.09.

Compared with INLRIVSPIDLIVRWEDPTW, INMGMYDSNVCDA is higher in amyloid nucleation score: -1.44 ± 0.33 for the first, -0.034 ± 0.65 for the second.

Compared with INPSWVSCVHFM, INSAGNLPQERTVLGYFHCS is lower in amyloid nucleation score: 0.062 ± 0.74 for the first, -1.44 ± 0.62 for the second.

Compared with INSITKSVGGQRGARRY, INVAQALLSAPA is higher in amyloid nucleation score: 2.25 ± 0.21 for the first, 3.81 ± 0.062 for the second.

IPLVKCRSCRRCNN and IPRGLFCLLYNVVKEYFVLR are within error of each other in amyloid nucleation score: 0.412 ± 0.5 for the first, 0.198 ± 0.4 for the second.

IQLIQML and IRADIHKLHLTIIYFKPPLV are within error of each other in amyloid nucleation score: 0.27 ± 0.57 for the first, -0.47 ± 0.78 for the second.

First: IRCVGRVVFCCNFS
Second: IRDRPHWAGGHLGWPYMWS
The amyloid nucleation score of the first is higher: 9.965 ± 0.078 for the first, 4.1 ± 0.1 for the second.

IRGSSIEKNRMWHVGLSLTW and IRHNVKRLGATNVW are within error of each other in amyloid nucleation score: -0.809 ± 1.1 for the first, -0.09 ± 0.76 for the second.

IRSNLTKKHLKIL and IRSRLFFALLCVYS are within error of each other in amyloid nucleation score: -0.994 ± 0.63 for the first, -0.861 ± 0.41 for the second.

IRTLMYISHSAGGYLL and IRTLSFMIANSAL are within error of each other in amyloid nucleation score: -0.576 ± 0.44 for the first, -1.16 ± 1.1 for the second.

IRYLYAMVLMDVNDGRYYCK and ISCGVSLPIANCTMTHIARV are within error of each other in amyloid nucleation score: -1.54 ± 1 for the first, -0.23 ± 0.49 for the second.

ISCHLFLLALYGWNKCVCSV and ISDAKRNCRCRSLPILIMVW are within error of each other in amyloid nucleation score: 0.114 ± 0.62 for the first, 0.448 ± 0.24 for the second.

Going from ISDSRLRKCVAPHSRDSGGH to ISGAL, the amyloid nucleation score falls from 1.96 ± 0.19 to 0.203 ± 0.45.

ISGYRWNHVSTFVGIYRVHS and ISPEYVSTALLTECTWRVLR are within error of each other in amyloid nucleation score: 0.98 ± 0.53 for the first, 0.215 ± 0.46 for the second.

ISPIESSDRMGGCSLRAILP and ISPLLNVYRDYWLYMF are within error of each other in amyloid nucleation score: -0.66 ± 0.35 for the first, -1.37 ± 0.75 for the second.

ITAGVPVFYL and ITCHGVVFSWLTRELLYTGL are within error of each other in amyloid nucleation score: -1.22 ± 1.1 for the first, -0.702 ± 0.45 for the second.

Compared with ITFKISNGVWYLPKRL, ITGTFF is lower in amyloid nucleation score: 6.629 ± 0.038 for the first, 1.99 ± 0.084 for the second.

Compared with ITNDLSLYYVARVGRTDYHF, ITTAYGGTIEMIRELNVASV is lower in amyloid nucleation score: 1.13 ± 0.12 for the first, 0.42 ± 0.47 for the second.

ITYPVESLYNAWSGGPVTDG and IVDISCI are within error of each other in amyloid nucleation score: 0.164 ± 0.8 for the first, -0.541 ± 1 for the second.

IVDSFTYTDVSTGSYLFG and IVFFTECSYSLFRWIMNNVW are within error of each other in amyloid nucleation score: -1.42 ± 0.75 for the first, -1.4 ± 0.39 for the second.

IVGCLGDGVRLL and IVKPSRKLKTQGCMKFNAWL are within error of each other in amyloid nucleation score: -0.563 ± 0.29 for the first, -0.284 ± 0.61 for the second.

IVLQRVGCFKDAGGNRVWEM and IVLRFFGFMDHSSYRNLFKE are within error of each other in amyloid nucleation score: 0.264 ± 0.45 for the first, -0.375 ± 1.1 for the second.

Going from IVQFYYVMQYRFRYCLDRMH to IVRELAVVLKKFYLFALFLR, the amyloid nucleation score falls from 1.01 ± 0.34 to -0.882 ± 0.62.

Going from IVRQIASFGRIRDRTRDDEW to IVSCFTRVN, the amyloid nucleation score rises from 3.05 ± 0.13 to 5.26 ± 0.059.

IVTINGNN and IVVSRMETSIKTCYFVMFHS are within error of each other in amyloid nucleation score: -0.51 ± 0.44 for the first, -0.421 ± 0.38 for the second.

Compared with IWEVNKVIIQYFPIAFKK, IWLTVVESRFVTGVVGECYW is lower in amyloid nucleation score: 5.713 ± 0.05 for the first, 0.255 ± 0.45 for the second.

IWRNSANCGASDEAVDSLR and IWSRLVVLRGRAGSDSSKNS are within error of each other in amyloid nucleation score: 0.53 ± 0.56 for the first, -0.044 ± 0.5 for the second.

Compared with IYAGSSLTLWGDRDNKKCDR, IYCCISEWSNHTWV is higher in amyloid nucleation score: -1.44 ± 1 for the first, 6.175 ± 0.036 for the second.

Going from IYFMFVVYDSIHQE to IYHFNFIFNYLMGDPPYRAT, the amyloid nucleation score rises from 1.32 ± 0.2 to 7.778 ± 0.04.

IYIGLCLRDYILDNMALMRQ and IYLTLNGILAICASRAWAAK are within error of each other in amyloid nucleation score: -0.721 ± 0.32 for the first, 0.094 ± 0.77 for the second.

Compared with IYMGISVCSICYV, IYNMVSCIIDLCYDKTRHSR is lower in amyloid nucleation score: 6.34 ± 0.071 for the first, 3.85 ± 0.12 for the second.

First: IYPDKSFMALFPMVIDFYTQ
Second: IYQPCCCV
The amyloid nucleation score of the first is lower: -2.19 ± 0.62 for the first, 0.76 ± 0.51 for the second.

IYRCIYRTPMLLGLYFNGPV showed an amyloid nucleation score of -0.791 ± 0.55.

In the case of INSLTKAVYYSSHYYPVSLS, the amyloid nucleation score is reported as “inactive”.
With IPILSFMRGLALSRSATYMS the amyloid nucleation score was “inactive”.
In the case of IPVYVAVIVG, the amyloid nucleation score is reported as “inactive”.
For ISDRSTHQASVLTFSPPDFY, the amyloid nucleation score was “inactive”.
For ISQRNRSIAYYKMSLTRYGF, the amyloid nucleation score was “inactive”.
With ITCIAGWSNLNDYVFYTVAS the amyloid nucleation score was “inactive”.
In the case of ITDGENSFAFLSNRDSS, the amyloid nucleation score is reported as “inactive”.
For ITVFILDRYFGICV, the amyloid nucleation score was “inactive”.
With IVFPDCSRYKKPHFCYEMVI the amyloid nucleation score was “inactive”.
In the case of IVHWSLHFMRGKSAYYQYVV, the amyloid nucleation score is reported as “inactive”.
For IVRWCLLIIIF, the amyloid nucleation score was “inactive”.
For IWFGVYIYFVDFRVILNRLL, the amyloid nucleation score was “inactive”.
For IWIKNTSLLLLCRLSHCHNI, the amyloid nucleation score was “inactive”.
With IYVRLLDSDTSYWVQFVFLQ the amyloid nucleation score was “inactive”.

Reference: the supplement of paper PMC12042874
